Source: the supplement of paper PMC9732359
± gives the uncertainty stated by the source.

Assay: protein stability index of a GFP-peptide fusion (yeast GPS) (PSI 1-4); higher = more stable; sorted into four equal gates, so the index is relative within each strain
How it was run: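 Yeast carrying a pooled library were grown to mid-log phase in leucine-free medium. Each library plasmid expresses Cherry and has a tiled 17-residue yeast protein peptide fused downstream of GFP. Cells were sorted into four equal gates by GFP/Cherry ratio, and plasmids from each gate were PCR-amplified, Illumina-sequenced and assigned to strains by barcode. Summing, across gates, the read frequency times the gate number gave each peptide's protein stability index.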

Sequence	protein stability index (doa10∆)	protein stability index (pdr5∆)	protein stability index (san1∆)	protein stability index (ubr1∆)
HGILDDLETSLSQSSSY [MED2]	2.98 ± 0.083	3.33 ± 0.1	3.12 ± 0.099	3.29 ± 0.14
GALIHKAGLMTGGISGD [SMC1]	2.63 ± 0.16	2.73 ± 0.11	2.72 ± 0.06	2.75 ± 0.087
AQQAQQAQQAQQAQARL [SNF2]	3.08 ± 0.051	3.24 ± 0.048	3.13 ± 0.035	3.2 ± 0.045
QWGKYQTFGVDILAKLF [SWI1]	2.25 ± 0.079	2.54 ± 0.063	2.43 ± 0.062	2.27 ± 0.053
ISPKIWCAGAGTAADTE [PUP1]	2.29 ± 0.1	2.36 ± 0.088	2.42 ± 0.12	2.24 ± 0.08
RMLSFEDISKATHLPKD [RPN9]	2.95 ± 0.091	3.08 ± 0.08	3.15 ± 0.096	3.02 ± 0.055
SMILGVAASIIPFPDHN [RPB2]	2.21 ± 0.12	2.41 ± 0.12	2.27 ± 0.21	2.8 ± 0.094
QAHEIVIPSYSKWFNLE [SWI3]	1.84 ± 0.052	1.82 ± 0.051	1.81 ± 0.071	1.66 ± 0.038
NSDIANLRTQVTQQKRS [SMC1]	3.05 ± 0.074	3.1 ± 0.055	2.97 ± 0.062	3.08 ± 0.066
GESTVESEKLVTPEDVM [RPC82]	3.15 ± 0.09	3.25 ± 0.12	3.15 ± 0.11	
LPSPESLKTKLNSNIRA [SNF5]	1.52 ± 0.048	1.71 ± 0.043	2.15 ± 0.061	2.1 ± 0.035
GAHKFLDTYLPEDLNSL [SIR2]	1.85 ± 0.071	1.88 ± 0.076	1.56 ± 0.13	1.81 ± 0.064
RINTLPQVQLPVRALIV [ECM29]		1.93 ± 0.26		
KERIIRAFLIEEQKIVK [RPL34A]	3.06 ± 0.082	2.26 ± 0.087	2.04 ± 0.13	2.49 ± 0.066
MKYLAAYLLLVQGGNAA [RPP2B]	1.53 ± 0.051	1.78 ± 0.038	1.78 ± 0.069	2 ± 0.065
GIAIGLNKGKKVTQMTP [RPL36B]		1.51 ± 0.2		
KGRSYAYFMVGAMGLLS [RIP1]	2.39 ± 0.11	2.82 ± 0.12	3.16 ± 0.2	2.98 ± 0.074
SFELKEEDISDLWNNFG [RRP6]	2.85 ± 0.1	3.1 ± 0.12	2.47 ± 0.091	3.26 ± 0.073
FSFGAKPAEKNNNETSK [YJL041W/NSP1]		2.52 ± 0.24		3.08 ± 0.24
VSLPEGSFKRVKPQYDE [BRR2]	3.16 ± 0.15	3.09 ± 0.12	3.13 ± 0.11	2.95 ± 0.14
NGFAPISEVMEDRNQRI [FAS1]	3.44 ± 0.093	3.3 ± 0.06	3.42 ± 0.05	3.31 ± 0.038
YGRDDMENIKKSIDSKT [ISW2]	2.87 ± 0.11	2.94 ± 0.1	3.21 ± 0.062	3.03 ± 0.082
DELCKLVTCEGSEEKAF [SRP54]	2.92 ± 0.18	2.3 ± 0.18	1.95 ± 0.18	2.25 ± 0.13
KHLEDNTLLISGPFKVN [RPL6A]	1.83 ± 0.085	2.01 ± 0.072	1.63 ± 0.13	2.14 ± 0.048
NVGLPILKSLKNRSNRK [YOR098C/NUP1]	3.07 ± 0.075	3.1 ± 0.078	2.88 ± 0.064	3.11 ± 0.049
NTFKVLSKFFFFIFVFN [COB]	1.66 ± 0.078	1.41 ± 0.1	1.32 ± 0.2	1.29 ± 0.077
KAVKLRKSYKNQIADLS [ROX3]	2.74 ± 0.1	2.85 ± 0.07	2.77 ± 0.095	2.95 ± 0.037

Sequence	protein stability index (doa10∆)	protein stability index (pdr5∆)	protein stability index (san1∆)	protein stability index (ubr1∆)
PFSEGVTFSVMPPKKSW [SMC4]	2.48 ± 0.091	2.03 ± 0.074	2.2 ± 0.11	2.57 ± 0.077
HNMKAYYKKFLIEPLPT [BRR2]	1.26 ± 0.055	1.58 ± 0.07	1.18 ± 0.16	1.44 ± 0.084
ALLRVTKSKNKTLIGLQ [POP4]	2.71 ± 0.055	2.18 ± 0.053	2.27 ± 0.052	2.47 ± 0.049
HRTIVIRRAYLHYIPKY [RPS11A]	1.87 ± 0.048	1.55 ± 0.042	1.84 ± 0.07	1.74 ± 0.031
EQPCVDIISGKIHSILP [YJR042W/NUP85]	3.02 ± 0.067	3.07 ± 0.1	3 ± 0.064	3 ± 0.053
REGSSARTIKATLPYIK [RPB2]	2.42 ± 0.067	3.17 ± 0.077	2.85 ± 0.061	2.69 ± 0.059
SVFYNIANMVLPPEKIY [SIR2]	1.78 ± 0.048	1.77 ± 0.043	1.81 ± 0.06	1.55 ± 0.04
DEKEKQLAVANEIIRSL [SIR4]	2.3 ± 0.048	2.25 ± 0.047	2.31 ± 0.069	1.91 ± 0.047
NFKSYRGVTKVGFGESN [SMC1]	3.03 ± 0.096	2.89 ± 0.13	2.53 ± 0.15	2.72 ± 0.11
VDNVTLESYKTQAKKLY [SRP72]	3.02 ± 0.11	2.87 ± 0.14		2.89 ± 0.11
MKEDGLSFVDIVLSKAA [SIR4]	1.88 ± 0.1	2.8 ± 0.07	2.74 ± 0.12	2.22 ± 0.053
EPSYIFEYLATVMYQRR [PRE4]	2.1 ± 0.081	2.46 ± 0.1	2.26 ± 0.091	2.12 ± 0.079
LAPNMQLNGNETFSTSA [SNF2]	3.15 ± 0.14	3.17 ± 0.11	3.29 ± 0.068	2.92 ± 0.096
AFTRKQANQVKRHSYAQ [RPS1A]	1.8 ± 0.024	1.75 ± 0.024	2.03 ± 0.034	2.01 ± 0.027
QDRQQLLPLVVSNISCL [ECM29]	1.38 ± 0.046	1.38 ± 0.036	1.29 ± 0.074	1.29 ± 0.034
VASLSKRNKLLTIFDSV [YJL039C/NUP192]	1.98 ± 0.059	1.93 ± 0.048	2.28 ± 0.063	1.89 ± 0.048
PPPPGFEEDSDLALPPP [PRP8]	3.22 ± 0.078	3.36 ± 0.07	3.19 ± 0.079	3.35 ± 0.057
SFLMRQFTRFFLLVPSK [ECM29]	2.03 ± 0.067	2.03 ± 0.057	1.75 ± 0.12	2.31 ± 0.05
SQKHNGRILKWLWPLCR [CDC53]	1.52 ± 0.063	1.33 ± 0.071	1.35 ± 0.094	1.12 ± 0.04
GGDVVKFQKLLQNSERD [SMC4]	3.15 ± 0.073	3.11 ± 0.049	3.06 ± 0.047	2.96 ± 0.052
FTRIFLPIYDSLMSSQN [SIR3]	2.24 ± 0.045	2.05 ± 0.038	1.99 ± 0.074	2.21 ± 0.037
PVIDYELKEITSLPDWC [BRR2]	2.8 ± 0.099	2.78 ± 0.086	3.1 ± 0.086	3.05 ± 0.048
EWRKSAIANTLLYLRLK [PRP8]	1.85 ± 0.063	1.54 ± 0.051	1.41 ± 0.095	1.37 ± 0.047
LYTLVINDAGKAKKLIQ [RPL38]	2.06 ± 0.11	2.19 ± 0.098	1.99 ± 0.1	1.56 ± 0.13
ELNQDRLGGDDLRIRIK [SNF5]	3.31 ± 0.11	3.36 ± 0.19	3.21 ± 0.12	2.91 ± 0.15
KLVRDSFTSATERHIQV [PRE7]	2.78 ± 0.075	2.9 ± 0.055	3.17 ± 0.055	2.37 ± 0.057
VCIRPSVMMQDSPASNE [RPO31]	1.63 ± 0.085	2.08 ± 0.1	1.94 ± 0.11	2.06 ± 0.099
